The values below come from patent US20190309085A1.

The target of the experiment is CD16aV (human) (UniProt P08637). The experiment can be described thus: BLI (Octet), His-captured hCD16aV, 1:1 model.
CD16aV (human), sequence (P08637 17-208 F176V limits assumed): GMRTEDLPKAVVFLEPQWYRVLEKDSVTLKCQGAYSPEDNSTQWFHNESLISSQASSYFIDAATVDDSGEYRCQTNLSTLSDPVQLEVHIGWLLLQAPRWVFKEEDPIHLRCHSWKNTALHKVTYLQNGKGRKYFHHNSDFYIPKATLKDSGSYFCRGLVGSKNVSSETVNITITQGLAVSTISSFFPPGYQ

Usually Kd stands for the concentration at which binding is half-saturated. Consider Fc-WT (antibody), for which the Kd amounted to 580 nM.
